{"source": "patent US20030165986A1", "about": "(IMMUNEX, published 2003)", "molecular_target": "T1, TACI ligand (TACI-L), expressed on transfected cells (Homo sapiens (Human), UniProt Q9Y275 1-285)", "T1 construct": "cDNA of TACI-L transfected into cells on slides and into CV1 cells (flow cytometry); also called Neutrokine alpha; TL5", "T1 sequence (Q9Y275 whole entry)": "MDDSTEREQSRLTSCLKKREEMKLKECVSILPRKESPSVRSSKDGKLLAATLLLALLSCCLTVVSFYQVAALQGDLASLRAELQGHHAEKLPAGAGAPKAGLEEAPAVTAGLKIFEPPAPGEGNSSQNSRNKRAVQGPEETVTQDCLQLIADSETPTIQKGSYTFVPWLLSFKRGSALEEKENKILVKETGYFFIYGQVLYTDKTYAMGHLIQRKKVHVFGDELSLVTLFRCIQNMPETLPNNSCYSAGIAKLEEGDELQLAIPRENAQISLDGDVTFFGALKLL", "assay": "slide binding assay on cDNA-transfected cells", "procedure": "[…] by adding 2 μg of the DNA encoding the members of the ligand family to a sterile tube and adding 75 μM choloroquine in transfection/growth medium to a final volume of 175 μl. 25 μl of DEAE-dextran (4 mg/ml in PBS) was then added to the DNA solution and mixed.\nThe growth medium was aspirated from the slides and replaced with 3 ml of 75 μM chloroquine in the transfectionfgrowth medium, followed by the addition of the DNA/DEAE-dextran mixture to the cells. The slides were rocked side-to-side and back-and-forth to distribute the precipitated DNA evenly. The slides were incubated at 37° C. for 4.5 hours.\nTo screen for positive pools expressing the cell-bound protein, slides were incubated with TACI:Fc and then with a radioiodinated protein probe (labeled goat anti-human Fc F(ab′)2) for 30 minutes at room temperature. The probe solution is then removed by aspiration and washed to remove the non-specifically bound probe. Finally, the slides were fixed by incubating each slide with 1 ml 2.5% glutaraldehyde in PBS for 30 minutes at room temperature to retain specifically bound label. The slides were then washed twice with 1 ml PBS and air-dried."}
{"binder": "TACI-Fc (Fc fusion, also called HuTACI/Fc; Fc chimera; not shown: Fc portion of human IgG1, fused in-frame at the 3' end) SGLGRSRRGGRSRVDQEERFPQGLWTGVAMRSCPEEQYWDPLLGTCMSCKTICNHQSQRTCAAFCRSLSCRKEQGKFYDHLLRDCISCASICGQHPKQCAYFCENKLRSPVNLPPELRRQRSGEVENNSDNSGRYQGLEHRGSEASPALPGLKLSADQVALVYST", "values": [{"measurement": "binding result", "value": "binds"}]}
